These results are taken from patent US7985736B2, “High throughput screen utilizing newly discovered intramolecular neuronal calcium channel interactions to discover new analgesics” (The John Hopkins University, priority 2004, dated 2011).

Where only a bound is given, the exact number is not on record here.

This experiment deals with T1, I-IIB-YFP (Homo sapiens, UniProt Q00975).
T1 construct: I-IIB residues, 357-482; expressed in transfected cells; host or cells: HEK293
Put plainly: Live-cell FRET two-hybrid assay versus I-IIB-YFP in HEK293 cells. In kind it is binding. The source says: To confirm preferential interaction of NTB with I-IIB a live-cell FRET two-hybrid assay was used (Erickson et al., 2003), in which NTB, NTC, I-IIB, and I-IIC were fused to either CFP or YFP, and the resulting fusion constructs expressed pair-wise in mammalian HEK293 cells. Given a Forster distance of ˜50 Å for the CFP/YFP pair (Patterson et al., 2000), the presence of FRET in individual cells would give a strong indication of interpeptide binding in the mammalian intracellular milieu. This indication is generally characterized by a low false-positive rate (Erickson et al., 2003), so that FRET assays provide a useful complement to yeast two-hybrid assays (Allen et al., 1995). […] SCFP (the signal derived from an image obtained with the CFP filter cube) is selective for CFP fluorescence and thereby gives an optical measure of NTB-CFP expression. Analogously, the SYFP signal, derived from preferential excitation and detection of YFP, estimates I-IIB-YFP levels. Finally, the SFRET signal reflects I-IIB-YFP fluorescence stimulated by FRET transfer from NTB-CFP, as well as secondary cross-talk signals. These three signals can be incorporated within a three-cube FRET algorithm to determine the strength of FRET interaction (“FRET ratio,” FR), independently of cross-talk (Erickson et al., 2001). FR adopts a value of unity in the absence of FRET and grows linearly with increasing FRET efficiency (Erickson et al., 2003). FR values for many individual cells are plotted as circles in FIG. 2Eb, with numerous determinations clearly greater than unity. Alternatively, FR values specified by a YFP-photobleaching methodology were also elevated above unity (triangles) (Bastiaens and Jovin, 1996). […] Consistent with yeast two-hybrid assays, then, FRET assays confirmed a selective propensity for NTB and I-IIB segments to associate.
Human m2 muscarinic acetylcholine receptor (AF498916) was engineered to reduce desensitization (Pals-Rylaarsdam and Hosey, 1997). QuikChange (Stratagene, La Jolla, Calif.) introduced cluster mutations, yielding m2R: residues 286-290 (STSVS/AAAVA), residues 307-311 (TVSTS/AVAAA). For FRET assays, base templates were ECFP/EYFP-tagged calmodulin constructs in pcDNA3 (Invitrogen, Carlsbad, Calif.), as described (Erickson et al., 2001). PCR-amplified channel segments or G proteins were substituted for calmodulin via upstream EcoRI and downstream NheI sites, creating in-frame fusions with fluorophore (ECFP/EYFP C-terminal to test molecules). NTC residues, 1-53; I-IIB residues, 357-482; and I-IIC residues, 436-554.
Experiments were performed mostly as previously described (Erickson et al., 2001; Erickson et al., 2003). Briefly, the FRET Ratio (FR) is the fractional increase in YFP emission due to FRET. […] For donor-dequenching analysis, EEFF is calculated as EEFF=^1−CFPpre/CFPpost, where CFPpre and CFPpost are the CFP emissions before/after 3 min YFP photobleaching. FR is determined by FR=(EEFF/[EYFP/ECFP])+1, where EYFP/ECFP is ratio of YFP and CFP molar extinction coefficients through 440 nm excitation bandpass of FRET cube (0.0574). For binding model analysis, Kd,EFF is the effective dissociation constant, related to actual Kd via filter/microscope optical characteristics. […]
Experiments were performed as described previously for the most part (Erickson et al., 2001; Erickson et al., 2003). Specifically, for quantitative analysis, all fluorescence from single cells were isolated through a pinhole in the image plane, and detected by photo-multiplier tube. In all three-cube FRET experiments, CFP levels were below a threshold where spurious, concentration-dependent FRET became significant (Stratton et al., 2004). Similarly, for donor-dequenching experiments, YFP levels were below an analogous threshold. […]

T1 sequence (Q00975 357-482): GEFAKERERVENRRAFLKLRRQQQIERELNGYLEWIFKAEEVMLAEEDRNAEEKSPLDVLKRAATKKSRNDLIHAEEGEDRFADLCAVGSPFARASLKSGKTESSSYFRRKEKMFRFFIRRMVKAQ

Regarding “NTC: NH3 terminus of L-type channel α1C subunit, free peptide [reference compound]”, for the setting “NTC-CFP versus I-IIB-YFP, lower-limit estimate”, the “Kd,EFF relative to NTB/I-IIB” value is on record as no less than 8 fold. Moreover, under “relative dissociation constant, HEK293 cells”, the “Kd,EFF / affinity for I-IIB (FRET), in words” value is “larger by an order of magnitude or more”.
